Test system: human embryonic stem cells (hESCs)
Experiment: Other growth factors in place of bFGF for undifferentiated growth of hESCs
Assay type: cell-based
Details: feeder- and serum-free conditions
Method: All the growth factors were dissolved in a PBS buffer that contained 0.5% BSA, 1 mM DTT (Dithiothreitol) and 10% glyceral as a 10 μg/ml (500×) stock solution and stored in aliquots at −80° C. These factors were added individually to the hESC cultures at a concentration of 20 ng/ml, in the absence of bFGF or in the presence of a low concentration of bFGF (4 ng/ml). Seven days after seeding undifferentiated hESCs on laminin/collagen-coated plates, the cultures were examined.

B1: activin-A: human growth factor tested in place of bFGF (protein, UniProt P08476 311-426, looked up)
Inhibin beta A chain: GLECDGKVNICCKKQFFVSFKDIGWNDWIIAPSGYHANYCEGECPSHIAGTSGSSLSFHSTVINHYRMRGHSPFANLKSCCVPTKLRPMSMLYYDDGQNIIKKDIQNMIVEECGCS
- ability to replace bFGF in supporting undifferentiated growth of hESCs: can not replace bFGF

From patent publication US20080241919A1, “Defined media for pluripotent stem cell culture” (The Burnham Institute of Medical Research, priority 2003, published 2008)
